Side chains are listed from the residue outwards. Ends that are not written are not given here. maleimide = maleimide-activated rabbit IgG carrier, to which the peptide is conjugated through its cysteine; rabbit IgG = rabbit IgG carrier (maleimide-activated), conjugated to the peptide
Biological target: AD7C-NTP neural thread protein (purified recombinant AD7C-NTP)
Experiment: cell-based or functional assay

Binder | reduction in tissue necrosis (rat injection sites, histopathology at 24 hours)
DNTHHARLIL (also: conjugated to maleimide-activated rabbit IgG, mode not given here) [Harlil sequence NTP-7] | > 95%
LHARLCLANFCGRNRV (also: conjugated through a cysteine to maleimide-activated rabbit IgG) [Harlil sequence NTP-1] | > 95%
C([maleimide-rabbit IgG])ARYRTGHHARLM [Harlil sequence NTP-3] | > 95%

— patent publication US7572450
